From PMC9668737, “Herpes simplex virus 1 protein pUL21 alters ceramide metabolism by activating the interorganelle transport protein CERT” (The Journal of Biological Chemistry, 2022)
Values joined by “and” are separate entries in the source; they are usually repeats but may differ in a detail not shown here. Identical values can stand only once.

Key:
StrepII-CERT^P = target: T1, StrepII-CERT^P (UniProt Q9Y5P4-2 1-598, hyperphosphorylated (sites not given)); test: cell-based or functional assay
T1 sequence (looked up): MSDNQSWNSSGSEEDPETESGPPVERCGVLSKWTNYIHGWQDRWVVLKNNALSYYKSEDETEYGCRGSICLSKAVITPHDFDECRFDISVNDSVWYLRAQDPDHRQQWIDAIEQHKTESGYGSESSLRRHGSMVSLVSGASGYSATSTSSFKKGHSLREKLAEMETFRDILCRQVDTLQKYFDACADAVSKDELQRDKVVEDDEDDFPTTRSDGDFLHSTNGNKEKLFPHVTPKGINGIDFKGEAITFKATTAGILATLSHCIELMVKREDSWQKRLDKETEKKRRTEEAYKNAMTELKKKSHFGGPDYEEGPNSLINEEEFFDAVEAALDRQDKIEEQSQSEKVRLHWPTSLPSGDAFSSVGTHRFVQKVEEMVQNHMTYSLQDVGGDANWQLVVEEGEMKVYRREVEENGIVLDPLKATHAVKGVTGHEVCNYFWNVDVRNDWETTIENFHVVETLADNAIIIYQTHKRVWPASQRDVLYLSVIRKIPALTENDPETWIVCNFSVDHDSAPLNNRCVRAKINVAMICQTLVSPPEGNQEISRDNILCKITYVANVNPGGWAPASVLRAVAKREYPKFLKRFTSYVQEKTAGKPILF

pUL21-H6 (HSV-1 pUL21) = target: T2, pUL21-H6 (HSV-1 pUL21) (herpes simplex virus 1, UniProt F8RG07 1-535); test: ITC; CERTL forms in the syringe titrated into pUL21 forms in the cell; 25 °C; 20 mM Tris pH 8.5, 500 mM NaCl, 0.5 mM TCEP; one-site binding model; single titrations; settings: both partners purified
T2 construct: tegument protein pUL21 of herpes simplex virus 1, UniProt F8RG07; source: E. coli T7 Express lysY/Iq, purified (Ni-NTA, SEC); not shown: His6, C-terminal, kept
T2 sequence: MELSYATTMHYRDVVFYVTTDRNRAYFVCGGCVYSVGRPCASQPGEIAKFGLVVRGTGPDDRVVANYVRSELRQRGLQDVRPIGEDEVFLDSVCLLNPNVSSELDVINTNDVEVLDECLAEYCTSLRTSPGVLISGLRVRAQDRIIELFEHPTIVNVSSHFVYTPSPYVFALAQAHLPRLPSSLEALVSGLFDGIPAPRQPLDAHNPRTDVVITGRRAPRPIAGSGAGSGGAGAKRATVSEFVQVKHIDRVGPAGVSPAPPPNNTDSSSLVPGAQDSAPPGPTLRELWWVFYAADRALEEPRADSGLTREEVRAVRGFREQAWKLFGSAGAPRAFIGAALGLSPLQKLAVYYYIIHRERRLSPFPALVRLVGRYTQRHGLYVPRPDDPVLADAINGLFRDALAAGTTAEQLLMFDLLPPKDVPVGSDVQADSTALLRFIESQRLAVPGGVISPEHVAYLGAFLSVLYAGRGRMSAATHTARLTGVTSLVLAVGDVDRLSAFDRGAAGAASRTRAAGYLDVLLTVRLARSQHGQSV

B1: pUL21^V382E-H6 (natural protein)
chain: MELSYATTMHYRDVVFYVTTDRNRAYFVCGGCVYSVGRPCASQPGEIAKFGLVVRGTGPDDRVVANYVRSELRQRGLQDVRPIGEDEVFLDSVCLLNPNVSSELDVINTNDVEVLDECLAEYCTSLRTSPGVLISGLRVRAQDRIIELFEHPTIVNVSSHFVYTPSPYVFALAQAHLPRLPSSLEALVSGLFDGIPAPRQPLDAHNPRTDVVITGRRAPRPIAGSGAGSGGAGAKRATVSEFVQVKHIDRVGPAGVSPAPPPNNTDSSSLVPGAQDSAPPGPTLRELWWVFYAADRALEEPRADSGLTREEVRAVRGFREQAWKLFGSAGAPRAFIGAALGLSPLQKLAVYYYIIHRERRLSPFPALVRLVGRYTQRHGLYEPRPDDPVLADAINGLFRDALAAGTTAEQLLMFDLLPPKDVPVGSDVQADSTALLRFIESQRLAVPGGVISPEHVAYLGAFLSVLYAGRGRMSAATHTARLTGVTSLVLAVGDVDRLSAFDRGAAGAASRTRAAGYLDVLLTVRLARSQHGQSV
For B1, the “EC50 of pUL21^V382E-H6 (62.5 nM to 4 μM) for accelerating GST-PP1-mediated dephosphorylation of 0.5 μM CERT^P in vitro, all proteins purified, 25 nM GST-PP1γ, 30 min at 30 °C” value (StrepII-CERT^P) was 3.33 μM.

B2: StrepII-CERTL^P (hyperphosphorylated human CERTL) (natural protein, UniProt Q9Y5P4-1 1-624, looked up)
chain: MSDNQSWNSSGSEEDPETESGPPVERCGVLSKWTNYIHGWQDRWVVLKNNALSYYKSEDETEYGCRGSICLSKAVITPHDFDECRFDISVNDSVWYLRAQDPDHRQQWIDAIEQHKTESGYGSESSLRRHGSMVSLVSGASGYSATSTSSFKKGHSLREKLAEMETFRDILCRQVDTLQKYFDACADAVSKDELQRDKVVEDDEDDFPTTRSDGDFLHSTNGNKEKLFPHVTPKGINGIDFKGEAITFKATTAGILATLSHCIELMVKREDSWQKRLDKETEKKRRTEEAYKNAMTELKKKSHFGGPDYEEGPNSLINEEEFFDAVEAALDRQDKIEEQSQSEKVRLHWPTSLPSGDAFSSVGTHRFVQKPYSRSSSMSSIDLVSASDDVHRFSSQVEEMVQNHMTYSLQDVGGDANWQLVVEEGEMKVYRREVEENGIVLDPLKATHAVKGVTGHEVCNYFWNVDVRNDWETTIENFHVVETLADNAIIIYQTHKRVWPASQRDVLYLSVIRKIPALTENDPETWIVCNFSVDHDSAPLNNRCVRAKINVAMICQTLVSPPEGNQEISRDNILCKITYVANVNPGGWAPASVLRAVAKREYPKFLKRFTSYVQEKTAGKPILF
modifications: hyperphosphorylated (CERTL^P); sites not given
notes: ceramide transport protein CERT, longer cytoplasmic isoform CERTL (with exon 11), human, UniProt Q9Y5P4-1; not shown: StrepII, N-terminal, kept
In the case of B2, the “stoichiometry N” value (pUL21-H6 (HSV-1 pUL21)) is reported as 0.76 and 0.72 and 0.74.
